Measurements as given in US20110229525A1 (VANDERBILT UNIVERSITY, published 2011).

Target: JAK2 (UniProt Q62120 1-1132)
Test: cell-based or functional assay

JAK2, sequence (Q62120 whole entry): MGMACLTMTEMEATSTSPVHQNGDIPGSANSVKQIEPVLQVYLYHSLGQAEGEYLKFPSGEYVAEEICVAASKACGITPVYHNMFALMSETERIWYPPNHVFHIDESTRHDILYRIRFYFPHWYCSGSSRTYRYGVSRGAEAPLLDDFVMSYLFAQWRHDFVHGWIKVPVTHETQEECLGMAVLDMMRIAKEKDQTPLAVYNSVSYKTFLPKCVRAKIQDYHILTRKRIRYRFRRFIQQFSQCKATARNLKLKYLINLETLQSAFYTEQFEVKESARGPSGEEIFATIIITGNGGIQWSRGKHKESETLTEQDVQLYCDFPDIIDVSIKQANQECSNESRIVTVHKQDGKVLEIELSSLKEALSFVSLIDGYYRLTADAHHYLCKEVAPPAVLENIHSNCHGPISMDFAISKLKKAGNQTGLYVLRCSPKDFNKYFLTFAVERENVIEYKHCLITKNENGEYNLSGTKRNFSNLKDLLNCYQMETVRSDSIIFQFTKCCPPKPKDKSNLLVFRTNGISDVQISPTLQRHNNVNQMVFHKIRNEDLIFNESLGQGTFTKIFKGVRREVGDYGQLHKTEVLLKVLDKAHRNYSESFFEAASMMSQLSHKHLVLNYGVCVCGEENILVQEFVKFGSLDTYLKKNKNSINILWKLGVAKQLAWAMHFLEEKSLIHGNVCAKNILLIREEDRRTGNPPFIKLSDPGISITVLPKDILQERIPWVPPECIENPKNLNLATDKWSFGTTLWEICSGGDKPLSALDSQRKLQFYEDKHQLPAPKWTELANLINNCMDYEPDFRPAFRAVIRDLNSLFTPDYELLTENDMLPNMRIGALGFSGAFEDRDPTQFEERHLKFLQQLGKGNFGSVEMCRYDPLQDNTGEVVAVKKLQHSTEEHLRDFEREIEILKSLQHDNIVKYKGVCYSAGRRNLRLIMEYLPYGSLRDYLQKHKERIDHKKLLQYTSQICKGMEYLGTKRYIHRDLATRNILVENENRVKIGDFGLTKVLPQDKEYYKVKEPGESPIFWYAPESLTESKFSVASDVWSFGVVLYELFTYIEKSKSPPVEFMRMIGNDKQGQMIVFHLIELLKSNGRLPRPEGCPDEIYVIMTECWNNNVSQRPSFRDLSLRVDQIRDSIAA

B1: CP-SOCS1 (recombinant cell-penetrating murine SOCS1 with MTM and 6x histidine tag) (other, human;murine, UniProt P08620 7-22, looked up, not shown: small tags and cut ends)
chain: AAVALLPAVLLALLAPMVARNQVAADNAISPAAEPRRRSEPSSSSSSSSPAAPVRPRPCPAVPAPAPGDTHFRTFRSHSDYRRITRTSALLDACGFYWGPLSVHGAHERLRAEPVGTFLVRDSRQRNCFFALSVKMASGPTSIRVHFQAGRFHLDGSRETFDCLFELLEHYVAAPRRMLGAPLRQRRVRPLQELCRQRIVAAVGRENLARIPLNPVLRDYLSSFPFQI
- concentration of CP-SOCS1 that inhibited phosphorylation of STAT1 by 50% (IC50), AMJ2.C8 macrophages stimulated with IFN-g and LPS: < 1.9 mM
